Results reported in PMC7865483 (International Journal of Molecular Sciences, 2021).

Molecular target: T1, Pank1 (pantothenate kinase 1), endogenous in A549 cells (human (endogenous in A549), UniProt Q8TE04 1-598)
T1 construct: pantothenate kinase 1, endogenous in the human lung cancer cell line A549; source: endogenous, A549 cells (fixed cells for PLA)
Test: proximity ligation; in situ PLA (Duolink) on fixed A549 cells, endogenous proteins; cells serum-starved for 24 h, or serum-starved and then treated with 500 μM H2O2
Conditions: partners not purified

T1 sequence (Q8TE04 whole entry): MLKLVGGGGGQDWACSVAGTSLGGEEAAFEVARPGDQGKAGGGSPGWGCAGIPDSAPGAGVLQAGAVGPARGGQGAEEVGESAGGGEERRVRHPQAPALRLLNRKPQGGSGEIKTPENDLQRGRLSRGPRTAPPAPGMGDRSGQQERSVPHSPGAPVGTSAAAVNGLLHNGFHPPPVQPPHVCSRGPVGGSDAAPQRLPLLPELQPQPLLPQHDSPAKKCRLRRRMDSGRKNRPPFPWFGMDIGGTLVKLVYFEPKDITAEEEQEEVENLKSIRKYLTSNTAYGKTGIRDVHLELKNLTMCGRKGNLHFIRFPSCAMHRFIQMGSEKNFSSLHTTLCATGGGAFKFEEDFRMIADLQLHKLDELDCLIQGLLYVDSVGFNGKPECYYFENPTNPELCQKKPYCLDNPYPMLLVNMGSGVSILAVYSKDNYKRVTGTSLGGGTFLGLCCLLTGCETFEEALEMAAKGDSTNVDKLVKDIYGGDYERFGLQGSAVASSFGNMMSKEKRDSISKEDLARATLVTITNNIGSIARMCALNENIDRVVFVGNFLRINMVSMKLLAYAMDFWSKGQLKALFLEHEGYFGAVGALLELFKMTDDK

| Binder | fold increase of the PLA signal after stress treatments, against control conditions [fold] | fold increase of the PLA signal after 24 h serum starvation, against control cells [fold] |
| --- | --- | --- |
| 4′-phosphopantothenoylcysteine synthetase (PPCS) (enzyme) not shown | ~10 |  |
| CoA synthase (CoAsy) (enzyme, human (endogenous in HEK293 and A549), UniProt Q13057 1-564, looked up) MAVFRSGLLVLTTPLASLAPRLASILTSAARLVNHTLYVHLQPGMSLEGPAQPQSSPVQATFEVLDFITHLYAGADVHRHLDVRILLTNIRTKSTFLPPLPTSVQNLAHPPEVVLTDFQTLDGSQYNPVKQQLVRYATSCYSCCPRLASVLLYSDYGIGEVPVEPLDVPLPSTIRPASPVAGSPKQPVRGYYRGAVGGTFDRLHNAHKVLLSVACILAQEQLVVGVADKDLLKSKLLPELLQPYTERVEHLSEFLVDIKPSLTFDVIPLLDPYGPAGSDPSLEFLVVSEETYRGGMAINRFRLENDLEELALYQIQLLKDLRHTENEEDKVSSSSFRQRMLGNLLRPPYERPELPTCLYVIGLTGISGSGKSSIAQRLKGLGAFVIDSDHLGHRAYAPGGPAYQPVVEAFGTDILHKDGIINRKVLGSRVFGNKKQLKILTDIMWPIIAKLAREEMDRAVAEGKRVCVIDAAVLLEAGWQNLVHEVWTAVIPETEAVRRIVERDGLSEAAAQSRLQSQMSGQQLVEQSHVVLSTLWEPHITQRQVEKAWALLQKRIPKTHQALD | ~10 | ~10 |
